Experimental data from CN113480646A (INST BIOPHYSICS CAS; UNIV PEKING FIRST HOSPITAL, dated 2021).

What was measured:
[1] = target: T1, 体外纯化的组蛋白H1.4(WT H1.4), fusion protein expressed from pET-28a-WT H1.4 (Homo sapiens (Human), UniProt P10412 1-219); test: Western blot, purified protein
T1 construct: Expressed in E. coli BL21(DE3) and purified; 100 ng was loaded, denatured, for the Western blot; also called 野生型H1.4

[2] = target: T2, 体外纯化的H1.4移码突变蛋白(H1.4 K157E fs*), fusion protein expressed from pET-28a-H1.4 K157E; test: Western blot, 100 ng purified protein
T2 construct: Expressed in E. coli BL21(DE3) and purified; 100 ng was loaded, denatured, for the Western blot; also called Lys157Glu fs*39; H1.4 K157E移码突变体
T2 chain: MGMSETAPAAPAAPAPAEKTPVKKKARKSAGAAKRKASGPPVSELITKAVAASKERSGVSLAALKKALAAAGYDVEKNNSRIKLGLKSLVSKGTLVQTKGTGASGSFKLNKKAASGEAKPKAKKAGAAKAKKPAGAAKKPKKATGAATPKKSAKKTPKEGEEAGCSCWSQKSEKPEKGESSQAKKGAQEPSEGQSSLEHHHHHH

[3] = target: T3, 内源过表达的组蛋白H1.4(WT H1.4), Flag fusion expressed from pFLAG-CMV-WT H1.4 in NIH 3T3 cells; test: Western blot, lysate of transfected NIH 3T3 cells
T3 construct: Overexpressed in mouse NIH 3T3 cells; Tested as SDS cell lysate (50 ug total protein) by Western blot; also called 野生型H1.4

B1: 特异性结合H1.4移码突变蛋白的单克隆抗体 (hybridoma cell line A1) (antibody, mouse IgG1, kappa, V domains shown)
VH: QIQLVQSGPELKKPGETVKISCKASGYTFTDYSMQWMKQAPGKGLKWMGWIDTGTGEPSYADDFKGRFAFSLETSASTAYLQINNLKNEDTATYFCARRSYGYFAFWGQGTLVAVSA
VL: DVVMTQTPLSLPVSLGDQASISCRSSQNIVHVNGNTYLEWYLQKPGQSPKLLIYKVSNRFSGVPDRFSGSGSGTEFTLKISRVEAEDLGVYYCFQGSHVPFTFGAGTKLELKR
notes: also called H1.4移码突变抗体; H1.4移码突变的抗体
Question: Does B1 bind [1]?
Answer: Result: no binding (tested: 100ng)

Question: Does B1 bind [2]?
Answer: Result: binds

Question: Does B1 bind [3]?
Answer: Result: no binding (tested: 50μg total lysate protein)
